Assay: yeast display, Sf9 membrane polyspecificity reagent, FACS + sequencing; frameworks hold sequencing errors
Outline: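 Nanobodies came from a synthetic yeast display library in Saccharomyces cerevisiae BJ5465, induced with galactose for 36–48 hours and stained for 1 hour at 4 °C with 10% biotinylated, detergent-solubilized Sf9 membrane reagent. Cells were enriched on streptavidin microbeads and then FACS-sorted, with low and high (top ~1%) gates set on anti-HA fluorescence for expression and streptavidin fluorescence for reagent binding. Each polyreactivity label reflects the gate a clone came from. Genes were amplified by colony PCR, sequenced by MiSeq 2 × 250 and filtered by CDR length.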

| Sequence | polyreactivity (PSR sort gate) |
| --- | --- |
| QLQLVESGGGLVQAGGSLRLSCAASGSTYHINAMGWYRQAPGKERELVADINWSGGSTYYADSVKGRFTISRDNAKNTVYLQMNSLKPEDTAVYYCAADVGVFTYSPYDAGEHDYWGQGTQVTVSS | low polyreactivity |
| QVQLVESGGGLVQAGGSLRLSCAASGSIFYHNPMGWYRQAPGKERELVAAITSRGGRTTYADSVKGRFTISRDNAKNTVYLQMNSLKPEDTAVYYCNAVYTGYSYISRVDYWGQGTQVTVSS | low polyreactivity |
| QVQLVESGGGLVQAGGSLRLSCAASGRTFSLYAMGRYRQAPGKERELVAGISSSGGSTYYADSVKGRFTISRDNAKNTVYLQMNSLKQEDTAFYYCAAYRNTVIRNSDYWGQGTQVTVSS | high polyreactivity |
| QVQLVESGGGLVQAGGSLRLSCAASGRNFPRNVMGWYRQAPGKERELVAAITGSGSSTYYADSVKGRFTISRDIEKNTVYLQMNSLQPEDTAVYYCATIWRFKLGDYWGQGTQVTVSS | high polyreactivity |
| QVQLVESGGGLVQAGGSLRVSCAASGSIFCPYTMGWNRQAPGKERELVAAITRSGGSTYYADSVKGRFTISRDNGKNTVYLQMNSLKPEDTAVFYCAARGQAYSGDRMYYWGQGTQVTVSS | high polyreactivity |
| QVQLVESGGGLVQAGGSLRLSCAASGSIFHTYAMGWYRKAPEKERELVAANTVSGGDTYYADSVKGRFTISRDNEKNTVYLQMNSLKAEDTAVYYCAVDTTTSYTVEYDYWGQGTQVTVSS | low polyreactivity |
| QVQLVESGGGLVQAGGILRLSCAASGRIKPRNAMGWYRQAPGKERELVAAISWDGGSTYYADSVKGRFTISRDNAKNTVYLQINSLKPVDTAVYYCNVYVSAGEEDEYWGQGTQVTVSS | low polyreactivity |
| QVQLVESGGGLVQAGGSLRLSCAASGRIQSVYAMGWYRQAPGKERELVAAIDYSGGSTNYADSVKGRFTISRDNGKNTVYLQMNSLKPEDTAVYYCNREGGAIAWRYLLEYLYSWGQGTQVTVSS | low polyreactivity |
| QVQLVESGGVLVQAGGSLRLSCAASGFTFSHNAMGWYRLARGKERELVAAISKGGSSTYYADSVKGRFTISRDNAKNTVYLQMNSLKPEDTAVYYCARPSPHKGYDYWGQGTQVTESS | high polyreactivity |
| QVQLVESGGRLVQAGGSIRLSCAASGRIFTDNAMGWYRQAPGKERELVAAISWDGSSTSYADSVKGRFTISRDNAKNTVYLQMNSLQPEDTAVYYCAASGVGTNHYGYWNESDYWGQGTQVTVSS | low polyreactivity |
| QVQLVESGGGLVQAGGSLRLSCAASGFTFYYYAKGWYRQAPGKERELVAAINKKGGSTYADSVKGRFTISRDNAKNSVYLQLNSLKPEDTAVYYCYAVLTYTGVGYESWGQGTQVTVSS | high polyreactivity |
| QVQLQESGGLVQAGGLRLSCAASGSVSYQEAMGWYRQSPGKERELVATISFGANTNYADSVKGRFTISRDNAKNTVYLQMNSLKPEDTAVYYCAAESLFDDYYGYWGQGTQVTVSS | low polyreactivity |
| QVQLVESGGGLVQAGGSLRLSCAASGRIFYNSVMGWYRQAPGKERELVAAISSSGGSTYYADSVKGRFTISRDNAKNTVYLQMNSLKPEDTAVYYCATTRRVPGEYWGQGTQVTVSS | high polyreactivity |
| QVHLVESGGGLVQAGGSLRLSCAASGRTFRYNAMGWYRQAPGKERELVATISSSGGSTSYADSVKGRFTISRDNAKNTVYLQMNSLKPEDTAVYYCNKRRLVAPGNGMDSWGQGTQVTVSS | low polyreactivity |
| QVQLVESGGGLVQAGGSLRLSSAASGSTFDYYAMGWYRQAPGKERELVAAISTSGSSTYYADSVKGRFTISGDNAKNTVYLQMNSLKPEDTAVYYCAAPIRYKGGYWGQGTQVTVSS | low polyreactivity |
| QVQLVESGGGLVQAGGSLRLSCAASGRIFSIYGMGWYRQAPGKERELVAVISGSVGITYYADSVKGRFTISRDNAKNTVYLQMNSLKPEDTAVYYCNAKFRRRKYDYWGQGTQVTVSS | high polyreactivity |
| QVHLVESGGGLVQAGCSLRLSCAASGSIFSYYAMGWYRQAPGKERELVAAISVSGGNYADSVKGRFTISRDNAKNTVYLQMNSLKPEDTAVYYCAALNVYGSADVTTLEMDYWGQGTQVTVSS | low polyreactivity |
| QVQLVESGGGLVQAGGSLRLSCAASGRIFYWYVMGWYRQAPGKERELVASISSGGGTNYADSVKGRFTISRDNAKNTVYLQMNSLKPEDTAVYYCAARAYPYYWTGQKQSRFGYWGQGTQVTVSS | high polyreactivity |
| QVQLVVSGGGLVQAGGSLRLSCAASGRIFRSYAKGWYRQAPGKERELVAAINYGGTSTYYADSVKGRFTISRDNAKNTVYLQMNSLKPEDTAVYYCAARRPTSPRRYESWGQGTQVTVSS | high polyreactivity |
| QVQLEESGGGLVQAGGSLRLSCAASGFTFYYYAMGWYRQAPGKERELVAAINTSGGSTYYADSVKGRFTNSRDNAKNTVYLQMNSLKPVDTAVYYCAAVDGFWTQYPRMGYWGQGTQVTVSS | high polyreactivity |
| QVQLVESGGGLVQAGGSLRLSCAASGSIFGGNAMGWYRPAPGKERELVAGISTSGGSTYYADSVKGRFTISRDNAKNTVYLQMNSLKPEDTAVYYCARGLGTYPQYWWFGTPGLDYWGQGTQVTVSS | low polyreactivity |
| QVQLVESGGGLVQAGGSLRLSCAASGSTFGANAMGWYRQAPGKERELVAVITWNDGSTYYADSVKGRFTISRDNAKNTVYLQMNSLKPEDTAVYYCATDPTSGRFYYWGQGTQVTVSS | high polyreactivity |

| Sequence | polyreactivity (PSR sort gate) |
| --- | --- |
| QVQLVESGGGLVQAGGSLRLSCAASGRTFVLYTMGRYRQAPGKERELVAVGSTYYADSVKGRFTISRDNAKNTVYLQMNSLKPEDTAVYYCNKPGNYVWRRSWDFDYWGQGTQVTVSS | high polyreactivity |
| QVQLVESGGGLFQAGGSLRLSCAASGIIFYYNTMGWYRQAPGKDRELVAAISQRGRSTYYADSVKGRFTISRDNAKNTVYFHLNSLKPEDTAVFYCNKLRNSHGFRYDYWGQGTQVTVSS | high polyreactivity |
| QVQLVESGGGLVQARGSLRLSCAASGSTLRRYAMGWYRQAPGKERELVAAISGSGDSTYYADSVKGRFTISRDNAKNTVYLQMNSLKPEDTAVYYCNAVYAFNGYDYWGQGSQVTVSS | low polyreactivity |
| QVQLVESGGGLVQAGGSLRLSCAASGRTFKFYAMGWYRQAPGKERELVAAISSSGGRTYYADSVKGRFTISRDNAKNTVYLQMNSLTPEDTAVYYCAAVPGSKFVQKDDYWGQGTQVTVSS | low polyreactivity |
| QVQIVESGGGLVQAGGSLRLSCAASGRIFVGYAMGWYRQAPGKERELFAAISRDGDNTFYADSVKGRFTISRDNAKNTVYLQMNSLKPEDTAVYYCAVDFCVWYGSAYAYDYYWGQGTQVTVSS | low polyreactivity |
| QVQLVESGGGLVQAGGSLRLSCSASGSIFPHYAMGWYRQAPGKERELVAAISRSGTSTYYADSVKGRFTISRDNAKNTVYLQMNSLKPEDTAVYYCNAYQVYTRTYGYCGQGTQVTVSS | high polyreactivity |
| QVQLVESGGGLVQAGGSLRLSCAASGITFVNYAMGWYRQAPGKERELVAAITSGGNTYYADSVKGRFTISRDNAKNTVYLQMNSLKPEDTAVYYCAAKWFYGKPYRGYYYWGQGTQVTVSS | high polyreactivity |
| QVQLVESGGGLVQAGGSLRLSCDASGITFASYAMGWYRQAPGKERELVAAISWGGSRTYYADSVKGRFTISRDNAKNTVYFQMNSLKPVDTAVYYCNAHTRYGPDYSYYYWGQGTQVTVSS | high polyreactivity |
| QVQLVESGGGLVQAGGSLRLSCAASGRIFAQYAMGWYRQAPGKERELVAGIDRRGGSTYYADSVKGRFTISRDNAKNTVYLQMNILKPEDTAVYYCAAYGTTGVYRGPGYDYWGQGTQVTVSS | low polyreactivity |
| QVQLVESGGGLVQAGGSLRLSCAASGRIFWWYTMGWSRQAPGKERELVAAISGSGGSTYYADSVKGRFTISRDNAKNTVYLQMNSLKPEDTAVYYCAAYHRRRATPIHSGEYGYWGQGTQVTVSS | high polyreactivity |
| QVQLVESGGGLVQAGGSLRLSCAPSGSIFKQYAMGWYRQAPGKERELVARITGSGGSTYYTDSVKGRFTISRDNAKNTVYLQMNSLKPEDTAVYYCNAGGRDAGYDYWGQGTQVTVSS | low polyreactivity |
| QVQLVESGGGLVQAGGSLRLSCAASGITFTPNAMGWYRPAPGKEREFVAAITYSGGSTYYADSVKGRFTISRDNAKNTVYLQMNSLKPEDTAVYYCAAVYYLLYYEAYYYWGQGTQVTVSS | low polyreactivity |
| QVQLVESGGGLVQAGGSLRLSCAASGSTFLSYAMGRYRQAPGKERELVAAITGSGGNTYYADSVKGRFTISRDNAKNSVYLQMNSLKPEDTAVYYCAADTSYWYDYYIDYVGYYYWGQGTQVTVSS | high polyreactivity |
| QVQLVESGGVLDQAGGSLRLSCAASGRIYFNKAMGWYRPAPGKEWELVAAINAGGRTNYADSVKGRFTISRDNEKNTVFLHMTSLKQEDTSVYYCNADDNPVWEYDYWGQGTQVTVSS | low polyreactivity |
| QVQLVESGGGLVQAGGSLRLSCAASGLTFYQNAMGWYRQAPGKERELVAAISSSGGRTYYADSVKGRFTISRDNAKNTVYLQMNSLKPEDTAVYYCAAYRRYRNWFNYWGQGTQVTVSS | high polyreactivity |
| QVQLVESGGGLVQAGGSLRLSCAASGRICVINAMGWYRQAPGKERELVATIDRGGSTNYADSVKGRFSISRDNAKNTVYLQMNSLKPEDTAVYYCAAGVVGKRSRTGYYWGQGTQVTVSS | low polyreactivity |
| QVQLVESGGGLVQAGGSLRLSCAASGSTFGGNDMGWYRQAPGKERELVAAISSGTSTNYADSVKGRFTISRDNAKNTVYLQMNSLKPEDTAVYYCAAVYWVLWQGSTYGYWGQGTQVTVSS | low polyreactivity |
| QVQLVESGGGLVQAGGSLRLSCAASGFIFQPYAMGWYRQAPGKERELVAAITSRGGRTYYADSVKGRFTISRDNAMNTVYLLMNSLKPEDTAVYYCAKRYAVYVTHFSRIRWYNYWGQGTQVTVSS | low polyreactivity |
| QVQLVESVGGLVQAGGSLRLSCAATGSIFSYYAMGWYRQAPGKERELVAAISVSGGRTYYADSVNGRFTISRDNAKNTVYLQMNSLKPEDTAVYYCATRIRSYYYWGQGTQVTVSS | high polyreactivity |
| QLQHVESGGGLVQAGGSLRLSCAGTGRIMWRNAMGWYRQAPGKEMELVAAITSGSRTSYADSVKGRFTISRDNSKNTVYLQMNSLKPEDTAVYYCARRSYGIYYRSADESWGQGTQVTVSS | high polyreactivity |
| QVQLVESGGGLVQAGGSLRLSCAASGRIFYNYAMGWYRQAPGKERELVAAISGSGGSTYYADSVKGRFTISRDNAKNTVYLQMNSLKPEDTAVYYCNADTVYTRTAPYDYWGQGSQVTVSS | low polyreactivity |

Source: the nanobody polyreactivity screen of Harvey et al. (2022)
